Source: article PMC8121366, “Crystal and solution structures reveal oligomerization of individual capsid homology domains of Drosophila Arc” (PLoS ONE, 2021)

Experiments:
[1] = target: the molecule itself; experiment: SEC-MALS + other: SAXS; SEC-MALS on Superdex S200 Increase 10/300 in TBS (20 mM Tris-HCl pH 7.4, 150 mM NaCl); SEC-SAXS on Superdex S200 Increase 3.2 in TBS, injected at 5 mg/ml, +10°C
Drosophila Arc1 N-lobe = target: T1, Drosophila Arc1 N-lobe (Drosophila); experiment: as above; details: both partners purified
T1 chain: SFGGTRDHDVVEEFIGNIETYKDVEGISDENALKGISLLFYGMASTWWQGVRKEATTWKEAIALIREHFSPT

B1: Drosophila Arc1 C-lobe (domain or fragment)
chain: KPAYQIYMEFFQNKQDDHDPIDTFVIQKRALLAQLPSGRHDEETELDLLFGLLNIKYRKHISRHSVHTFKDLLEQGRIIEHNNQED
notes: Arc1 (dArc1) of Drosophila, isolated C-lobe; monomeric mass 11 kDa; Dimer in the crystal and in solution; also called dArc1-CL; source: E. coli BL21(DE3), purified (Ni-NTA, TEV cleavage, second Ni-NTA, amylose resin, Superdex S200); not shown: His tag, N-terminal, cleaved; MBP, N-terminal, cleaved
[1]
  stoichiometry N: 2

B2: Drosophila Arc2 N-lobe (domain or fragment)
chain: RFSGQRDHDAVDEFINAVETYKEVEGISDKDALKGLPLLFKSIAVVWWKGVRRDAKTWSDALQLLRDHFSPT
notes: monomeric mass 8.4 kDa; Tetramer in solution (SEC-MALS, SAXS); domain-swapped dimer in the crystal; also called dArc2-NL; source: E. coli BL21(DE3), purified (Ni-NTA, TEV cleavage, second Ni-NTA, Superdex S200); not shown: His tag, N-terminal, cleaved; MBP, N-terminal, cleaved
[1]
  stoichiometry N: 4

B3: Drosophila Arc2 C-lobe (domain or fragment)
chain: KPSYQIYMEIFETKQSYDEVIDSFICKQRALLAKLPEGRHDEETELDFIYGLMQPKYRESIPRHEVKTFRELLDRGRTVERTRH
notes: Arc2 (dArc2) of Drosophila, isolated C-lobe; monomeric mass 10 kDa; Dimer in the crystal and in solution; also called dArc2-CL; source: E. coli BL21(DE3), purified (Ni-NTA, TEV cleavage, second Ni-NTA, amylose resin, Superdex S200); not shown: His tag, N-terminal, cleaved; MBP, N-terminal, cleaved
[1]
  stoichiometry N: 2

B4: Drosophila Arc1 N-lobe (domain or fragment)
chain: SFGGTRDHDVVEEFIGNIETYKDVEGISDENALKGISLLFYGMASTWWQGVRKEATTWKEAIALIREHFSPT
modifications: limits inferred from the homologous dArc2-NL construct (6SIB, 37-109), the 8.2 kDa monomer mass and the dArc1-CL start at 123 (6SID); start uncertain by about 1 residue; dimer in solution / limits …
Drosophila Arc1 N-lobe
  stoichiometry N: 2
